The text below walks through data of US20230002481A1 (Chugai, published 2023).

In this assay the target is T1, recombinant cyno C1r2s2 His/Flag tetramer (cynomolgus monkey, limits assumed).
T1 construct: Heterotetramer of two C1r-His and two C1s-Flag chains, co-expressed in FreeStyle293-F cells; also called cyno C1r2s2s
T1 chain 1: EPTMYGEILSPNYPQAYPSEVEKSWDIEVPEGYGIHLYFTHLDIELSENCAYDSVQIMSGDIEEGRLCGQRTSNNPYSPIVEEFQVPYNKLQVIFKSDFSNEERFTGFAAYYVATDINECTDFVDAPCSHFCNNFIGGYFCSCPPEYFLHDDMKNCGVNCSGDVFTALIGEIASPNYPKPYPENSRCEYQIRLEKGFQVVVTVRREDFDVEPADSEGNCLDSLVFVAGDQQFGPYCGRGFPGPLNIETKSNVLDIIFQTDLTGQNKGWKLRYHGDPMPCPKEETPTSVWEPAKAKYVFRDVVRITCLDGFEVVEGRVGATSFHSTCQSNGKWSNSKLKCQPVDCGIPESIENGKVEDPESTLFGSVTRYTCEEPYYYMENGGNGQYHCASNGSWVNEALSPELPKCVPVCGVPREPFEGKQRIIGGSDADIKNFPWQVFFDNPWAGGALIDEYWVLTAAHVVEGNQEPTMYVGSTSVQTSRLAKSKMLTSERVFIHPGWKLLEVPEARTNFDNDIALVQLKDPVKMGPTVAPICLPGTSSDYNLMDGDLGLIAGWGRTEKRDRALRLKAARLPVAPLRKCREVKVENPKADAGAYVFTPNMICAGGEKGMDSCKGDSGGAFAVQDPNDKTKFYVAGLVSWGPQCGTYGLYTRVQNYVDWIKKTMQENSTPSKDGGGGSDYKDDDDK
T1 chain 2: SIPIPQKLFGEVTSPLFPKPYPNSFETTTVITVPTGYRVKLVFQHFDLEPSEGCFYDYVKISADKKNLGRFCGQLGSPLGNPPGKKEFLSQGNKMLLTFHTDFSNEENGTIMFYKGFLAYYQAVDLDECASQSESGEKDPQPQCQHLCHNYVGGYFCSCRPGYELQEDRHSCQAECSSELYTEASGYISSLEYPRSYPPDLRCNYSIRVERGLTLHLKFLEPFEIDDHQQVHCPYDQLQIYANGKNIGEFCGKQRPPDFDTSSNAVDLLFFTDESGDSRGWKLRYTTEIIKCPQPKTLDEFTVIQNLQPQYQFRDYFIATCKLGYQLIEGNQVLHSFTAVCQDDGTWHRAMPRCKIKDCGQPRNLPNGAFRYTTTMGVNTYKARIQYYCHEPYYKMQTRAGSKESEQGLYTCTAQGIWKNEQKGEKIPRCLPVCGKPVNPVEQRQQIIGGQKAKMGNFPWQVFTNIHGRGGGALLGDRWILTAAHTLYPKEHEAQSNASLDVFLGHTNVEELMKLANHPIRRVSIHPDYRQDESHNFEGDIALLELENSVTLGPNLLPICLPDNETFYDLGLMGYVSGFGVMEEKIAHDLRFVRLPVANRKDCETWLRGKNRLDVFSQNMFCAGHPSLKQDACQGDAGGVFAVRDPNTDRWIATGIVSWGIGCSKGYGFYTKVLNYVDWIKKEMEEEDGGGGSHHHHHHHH
In words: SPR (Biacore), antibody captured on ProA/G, antigen as analyte, 37 C, pH7.4, 1.2 mM CaCl2; pH 7.4. The protocol: The kinetic parameters of anti-C1s antibodies against recombinant human C1s (as described in PCT/JP2018/042054), human C1r2s2, and cyno C1r2s2 His/Flag (also referred as cyno C1r2s2 in the Table and Figures) were assessed at pH7.4 and pH5.8, at 37 degrees C. using BIACORE (registered trademark) T200 instrument (GE Healthcare) or BIACORE 4000 (GE Healthcare). ProAG (Pierce) was immobilized onto a CM4 sensorchip using amine coupling kit (GE Healthcare) according to the recommended settings by GE Healthcare. Antibodies and analytes were diluted into the respective running buffers, ACES pH7.4 and pH5.8 (20 mM ACES, 150 mM NaCl, 1.2 mM CaCl₂, 1 mg/ml BSA, 1 mg/ml CMD, 0.05% Tween 20, 0.005 w/v % NaN₃). Each antibody was captured onto the sensor surface by ProA/G. Antibody capture levels were typically 100-200 resonance units (RU). Then, recombinant C1s was injected at concentrations of 25 and 50 nM followed by dissociation at pH7.4 and pH5.8. The surface was regenerated using 10 mM Glycine-HCl, pH1.5. Kinetic parameters at neutral pH conditions and acidic conditions were determined by fitting the sensorgrams with 1:1 binding model using BIACORE (registered trademark) T200 Evaluation software, version 2.0 (GE Healthcare) or BIACORE 4000 Evaluation software. The dissociation rate at pH5.8 (after dissociation at pH7.4, indicated as pH5.8* in TABLE 2) was determined by processing and fitting data using Scrubber 2.0 (BioLogic Software) curve fitting software. The association rate (ka), dissociation rate (kd), binding affinity (KD) at pH7.4 and pH5.8 condition, and dissociation rate (kd) at pH5.8* condition of the antibodies are listed in TABLE 2. Some kinetic parameters of COS0098pHv1 in acidic condition were not correctly calculated because of its weak binding response.
Also, to observe the cross-reactivity of anti-C1s antibodies against human C1r2s2 and cyno C1r2s2 (cyno C1r2s2 His/Flag), BIACORE (registered trademark) kinetics analysis was performed.

B1: COS0098bb (antibody, V domains shown)
VH: QSVEESGGRLVTPGTPLTLTCTVSGFSLTKYTVSWVRQAPGKGLEWIGIINTGGSAYYATWAKGRFTFSKTSTTVDLQITSPTTEDTATYFCARGNGDTDYTNLWGPGTLVTVSS
VL: QVLTQTPSSVSEPVGGTVTINCQASENIYSALAWYQQKPGQPPKLLIYGASNLESGVPSRFKGSGSGTQFTLTISDLECADAATYYCQQYYFTSSTFGGGTKVEIK
notes: Anti-C1s rabbit antibody, parent of COS0098pHv1; the antibody was captured by ProA/G; also called anti-C1s antibody COS0098bb
B1: the Kd was determined as 0.0821 nM, the koff is 8.1e-05 s⁻¹ and the on-rate (kon) came to 987000 M⁻¹ s⁻¹.
